The values that follow come from the supplement of paper PMC9942255.

Several values for one entry are separate records, joined by “and”; a condition that tells them apart may be missing. Equal values may be shown once.

This data set concerns Bacillus subtilis DB104 (SP-AmyQ fusion secretion). Put plainly: AmyQ secretion efficiency, weighted average sort bin (1 = best secretion, 10 = worst) (bin number (weighted average, 1-10)); higher = lower secretion efficiency. A digest of the protocol: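 The secretion score was taken as the read-frequency-weighted mean bin number, normalised to beads per bin, with low-abundance sequences excluded. Bins came from large-particle flow cytometry sorting of occupied alginate beads (~65 nL, about 0.3 cells each, with fluorescein-starch) into 10 equally populated groups by green/red fluorescence ratio after about 13 h at room temperature and nile red staining. The cells were a B. subtilis DB104 library with mature AmyQ fused to designed signal peptides, integrated at amyE, and each bin's amplicons were Illumina-sequenced.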

As for MKKWIYTYKVLSIAGIGGFSVHAASS, the AmyQ secretion efficiency was found to be 6.93.
MKLAKRINMVSALTPSTTLAITAKAKEL yielded an AmyQ secretion efficiency of 7.42.
In turn, MIAYFGKCRKRRTIMFLGVLFGMQQANHG came in with an AmyQ secretion efficiency of 4.01.
MKVKRRKRKLLLFAFEPSASGKKL: the AmyQ secretion efficiency was 6.97.
The sequence MMLAKRVSALTPSTTLAITAKAKEL yielded an AmyQ secretion efficiency of 7.47.
Take MKKAAAVLLSLGLVFKFSYGAGHVAEAKTK: the AmyQ secretion efficiency worked out at 3.2.
MKLAKRVSALTPSTTLAITEKAKEL yielded an AmyQ secretion efficiency of 7.31.
Sequence MKRLLSSLAISALSLGLLVSAPTASFAAES showed an AmyQ secretion efficiency of 2.75.
With MGQGKGSVFLILLLMLTLVVAPKEKAEAASS, the AmyQ secretion efficiency came to 1.82.
The same measure for MTKLKMLSMLTVMIASLFIFSSQTLAVQY: 2.28; for MTKRGIQAFAGGIILATYLTDEDQAAAV: 7.21; for MKKSQYFIVFICFFVLFSVHPIAPAAADS: 4.14.
MKKAFILSAAAAVGLFTFGASAKEL had an AmyQ secretion efficiency of 5.43.
MRGKSAVLLSLIMLIAGFLISFTFQM registered an AmyQ secretion efficiency of 6.75.
MKSKGSIMACLILFSFTITTFINTETISDFSN registered an AmyQ secretion efficiency of 6.98.
Turning to MFNRLFRVCFLAALIMAFTLPNSCYAQKP, the AmyQ secretion efficiency was 2.79.
MRKKTKNRLISSVLSTVVISSLLFPGAAGCSSK returned an AmyQ secretion efficiency of 5.98.
For MKWMCSICCAAVLLAGGAQAEAV, the AmyQ secretion efficiency came out at 3.54.
For MKRSSGKQLIGIMLLTFAPSAFAKQD the value was 3.5; for MSTTIIITATTAVVLGSTLFAGAASAQSI, 2.61.
For MKWMCSICCAAVLLAGGAQQAEAV the value was 2.93.
The same measure for MKRIRIPMTLALGAALTIAPLSFGSAEEN: 4.51; for MLKKIALTLCPAIVGSLLFFTAPPFSASAHVS: 4.02; for MAAQTDYKKQVVGILLSLAFVLRRRKFSERHE: 7.65.
Take MKKRLIAPMLLSAASLAFFAMSGSAQSAAY: the AmyQ secretion efficiency stood at 5.28.
With MTMLRKIIGWILLLCIIPLFAFTVIVSGKEV, the AmyQ secretion efficiency stood at 5.52.
With MRHKIITFILAVVVIIIIGNMIGGGGGSEATSE, the AmyQ secretion efficiency was found to be 3.29.
MRMLWRSKRLCGLALTLAPCAQAAEP: the AmyQ secretion efficiency amounted to 6.7.
On to MFNLQVMLALTAAAGLGLTALHSAPAAKAAPL, for which the AmyQ secretion efficiency worked out at 3.11.
For MKKRYMAFIICLSLILSVLAAPPSGAKAESV the value was 2; for MKRMIVRMTLPLLIVCLAFSSFSASARVASE, 4.86.
Sequence MAIIIAIIAAVIVIAALITFNVGNASPG came in with an AmyQ secretion efficiency of 5.7.
The same measure for MKKRWRKTSQAAVLLLMVPKVSLADAA: 7.38; for MKKKLAAGLTASAIVGTTLVVTPAEKATI: 7.23; for MNKLKRLSMLKKKKASVFIFSSHALAAQY: 6.52.
As for MKRKKIMIFLTSFMLLAMTGQTALAKDV, the AmyQ secretion efficiency was 3.1.
MKKTIMSFVAVAALSTGAHASAKEI: the AmyQ secretion efficiency was found to be 2.46.
MRPVFPLILSAVLFLSCFFGARQTEASKSKR displayed an AmyQ secretion efficiency of 2.19.
In turn, MKWMCSICCAAVLLAGGAAQMEAV gave an AmyQ secretion efficiency of 3.22.
For MKKRLIAPMLLSAASLAFFAQEGSAQAAAY the value was 2.53; for MPYLKRGGLLLVTGLFMSLFAVTATASAQTG, 1.51; for MRRKRFTALAVFLLCFMPAAKIEHTQASLL, 5.25.
On to MKKRKRRNFKRFIAAFLVLALMISLVPADGLAKST, for which the AmyQ secretion efficiency was 2.45.
MTKKAWFLPLVCVLLISGWLAPAASKSAQTT showed an AmyQ secretion efficiency of 4.7.
In turn, MHLIRAAGAVCLAVVLIAGCRFNEDQHQAELENT registered an AmyQ secretion efficiency of 6.53.
Turning to MKSKWMSGLLLVAVGFSFRKKMVHAGET, the AmyQ secretion efficiency was determined as 7.87.
With MIVIILLFISIIVFLVVTIQPQPS, the AmyQ secretion efficiency came out at 8.71.
In the case of MRKRKKLSVAVAASFMSLSISLPGVQAAEG, the AmyQ secretion efficiency was determined as 1.73.
For MHLIRAAGAVCLAVVLIAGCRFNEDQHQAEWENT the value was 6.12.
The sequence MNKKYFVLIVCIIFTSALFPTFSSVTRAQG had an AmyQ secretion efficiency of 1.05.
MKSKWMSGLLLVAVGFSFTQVMVHNGET displayed an AmyQ secretion efficiency of 8.98.
The same measure for MKLRKVLTGSVLSLGLLVSASPAFATED: 2.67.
For MKSRTIWTIILGALLVCCKKKKRTLTKSQAGASSS the value was 6.52; for MKKIWIGMLAAAVLLLMVPKVVLADAA, 3.66; for MKKSQYFIVFICFFVLFSVHPIAAAGADS, 3.85.
In turn, MLCKRRKRKSAIASFPVSAQAKDQ gave an AmyQ secretion efficiency of 6.78.
Sequence MFNRLFRYCTLAALIMAFTLPNSVYAQKP registered an AmyQ secretion efficiency of 1.93.
MKKAAAVLLSLGLVFGFSYGAGHVKEAKTK registered an AmyQ secretion efficiency of 6.72.
The same measure for MLCVMMLLFSAIASFPVSAQQKDQ: 6.18; for MGFGSTLVVSALSISALALSVSGVASAHEI: 3.47.
Turning to MKSKWMSGLLLVAVGFSFTQVMVHARRR, the AmyQ secretion efficiency is 7.53.
For MKTKTLFIFSAILTLSIFAPNEMFAQTA the value was 1.9; for MTKKAWFLPLVCVLLISGWLAPAASVSAQTT, 2.17; for MRKNRILALFVLSLGLLSFMVTPVSAKRK, 2.57.
In turn, MKKTIMSFVAVAALSTTAFGAHASRKEI gave an AmyQ secretion efficiency of 4.66.
The same measure for MKKAFILSAAAAVGLFTFLILSFTGGVQQASAKEL: 3.78.
On to MGLGKKLSVAVAASFMSLSISLPGVQAAPG, for which the AmyQ secretion efficiency came out at 2.04.
The same measure for MKQRKRVSALTPSTTLAITAKAKEL: 7.26.
In turn, MKKKQVMLALTAAAGLGLTALHSAPAHKAAPL yielded an AmyQ secretion efficiency of 6.85.
MKLSVKIAGVLTVAAAAMRKKMYATAKGN yielded an AmyQ secretion efficiency of 7.43.
For MKNMSCKLVVSVTLFFSFLTIGPLHHAQNS the value was 5.75.
The same measure for MFKKLLLATSALTPLDGHAKAQEV: 5.8.
In the case of MKSKWMSGLLLVAVGFSFTLFSSAVVSTQVMVHAGET, the AmyQ secretion efficiency worked out at 7.18.
MTVPKTMLLSTAAGLLLSLTATSVSAHYV had an AmyQ secretion efficiency of 6.58.
Take MKRQCYWTYQSSRQLVLLPGKALGAVD: the AmyQ secretion efficiency amounted to 8.11.
Take MNKPTKLKKKKALAAGMTAAAAGGAGTIHAQQP: the AmyQ secretion efficiency is 8.12.
The same measure for MKRKLLSSLAISALSLGLLVSAPTAGFAAES: 3.25; for MMLSVKIAGVLTVAAAAMTAKMYATAKGN: 5.4.
The same measure for MKRKTLSSLAISALSLGLLVSAPTASFAAES: 2.4; for MKKRFFGPIILAFILFRRRAIAIPS: 7.49.
For MSSGTVIASILLSFLSVLSGGHHESKAFPV the value was 6.28; for MFSIFSLIMMTGLLFGLTSPAFAAEK, 4.78.
Take MFKKHTISLLIIFLLASAVLAKPIEGHTV: the AmyQ secretion efficiency was 3.78.
As for MAIIIAIIAAVIVIAALINVRNASPG, the AmyQ secretion efficiency amounted to 8.6.
MKKRLIAPMLLSAASLAFFAMFIIGSTAQAAAY came in with an AmyQ secretion efficiency of 4.67.
With MTRFILVLSFLSIIVAYPIQTNASPM, the AmyQ secretion efficiency is 5.75.
As to MGLGKKLSVAVAASFMSLSISLPGCQAAEG, the AmyQ secretion efficiency amounted to 1.48.
In the case of MNFKKTVVSALSISALALSVSGVASGHEI, the AmyQ secretion efficiency worked out at 4.67.
For MIVIILLFISIIVFLSVIQPQPS the value was 8.27 and 5.9 and 6.5.
For MRNLTKTSLLLAGLCTAAQMVFVTHHSAEES, the AmyQ secretion efficiency worked out at 4.26.
Regarding MKLAKRVSALTPSTTLAITAKSKEL, the AmyQ secretion efficiency came to 7.27.
Consider MKVCQKSIVRTNFLVSLIIGTFVISVPFMANAQSD, for which the AmyQ secretion efficiency was 2.34.
MRMLWRSLALCGLALTLAPCAQVAEP gave an AmyQ secretion efficiency of 6.05.
Take MGSLTKTSLLLAGLCTAAQMVFVTHASAEES: the AmyQ secretion efficiency came out at 4.02.
Consider MRGKSAVLLSLIMLIAGFLISFLFQM, for which the AmyQ secretion efficiency stood at 7.41.
As for MKKIAGVLTVAAAAMTAKMYATAKGN, the AmyQ secretion efficiency worked out at 7.41.
For MILKSKLLLSCLALSTVFVATTIANAPTH the value was 6.38; for MKRFSTAYLLLGILCSAAVFLIGAPSRALGAPV, 1.61.
The sequence MAIIIAIIAAVIVIAALITFNVRNASPE registered an AmyQ secretion efficiency of 6.75.
In turn, MKNMSCKLVVSVTLFFSFLTIGPLAHQQNS came in with an AmyQ secretion efficiency of 5.78.
In the case of MKKWIYVVLVLSIAGIGGFSVHTASS, the AmyQ secretion efficiency turned out to be 6.85.
For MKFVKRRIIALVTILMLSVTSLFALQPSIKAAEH the value was 3.57; for MKSKGSIMACLILFSFTITTFINTETISYFSN, 7.41; for MRKYTVIASILLSFLSVLKKKKHHKSKAFPV, 7.85.
The sequence MNLRKILLSSALSLGMLVSAAPFLATSS returned an AmyQ secretion efficiency of 6.67.
The same measure for MKTKTLFIFSAILTLSIFAPNEGFAQTA: 3.32; for MRKYTTKGYQKTYFLSVLSGGHHESKAFPV: 8.3.
As for MLTFLWMVGLLAGCLAAGGFSYNAFATEN, the AmyQ secretion efficiency came to 7.84.
MKSKWMSGLLLVAVGFSFTQVMVHIGET: the AmyQ secretion efficiency was 5.32.
The same measure for MKIRKIKKSSALSFGMLISAVPALAAGT: 4.2.
